Two substances from paper PMC7048170 can be followed below.

This assay concerns the target MUC1 cytoplasmic tail construct (MUC1 with the tandem repeat domain deleted) (human). The experiment in a line: co-IP.

“p53 (from UniProt P04637 1-393) (natural protein)” yielded a fold of co-precipitated protein against the input control of 6.9 fold.
Turning to “c-Jun (from UniProt P05412 1-331) (natural protein)”, the fold of co-precipitated protein against the input control is 5.6 fold.
